Test results taken from article PMC7411789, “Application of a Glucose Dehydrogenase-Fused with Zinc Finger Protein to Label DNA Aptamers for the Electrochemical Detection of VEGF”.

Target: ZF-GDH (Zif268 fused to N-terminus of AfGDH) (mouse (Zif268); Aspergillus flavus (GDH), UniProt P08046 336-416)
Test: method not stated; states fusion kept dsDNA binding, with ref 25; TBS: 10 mM Tris-HCl, 100 mM NaCl, pH 7.0; washes with 0.05% Tween-20, block 4% skim milk; 25 °C, 1 h

B1: Zif268 target dsDNA (dsDNA)
DNA 1: GCGTGGGCG
DNA 2: CGCCCACGC
B1: binds.
